Legend:
cry1_mouse Cry1 = cry1_mouse Cry1 (UniProt P97784)
cbp_mouse Crebbp = cbp_mouse Crebbp (UniProt P45481)
Chain of cbp_mouse Crebbp (P45481 whole entry): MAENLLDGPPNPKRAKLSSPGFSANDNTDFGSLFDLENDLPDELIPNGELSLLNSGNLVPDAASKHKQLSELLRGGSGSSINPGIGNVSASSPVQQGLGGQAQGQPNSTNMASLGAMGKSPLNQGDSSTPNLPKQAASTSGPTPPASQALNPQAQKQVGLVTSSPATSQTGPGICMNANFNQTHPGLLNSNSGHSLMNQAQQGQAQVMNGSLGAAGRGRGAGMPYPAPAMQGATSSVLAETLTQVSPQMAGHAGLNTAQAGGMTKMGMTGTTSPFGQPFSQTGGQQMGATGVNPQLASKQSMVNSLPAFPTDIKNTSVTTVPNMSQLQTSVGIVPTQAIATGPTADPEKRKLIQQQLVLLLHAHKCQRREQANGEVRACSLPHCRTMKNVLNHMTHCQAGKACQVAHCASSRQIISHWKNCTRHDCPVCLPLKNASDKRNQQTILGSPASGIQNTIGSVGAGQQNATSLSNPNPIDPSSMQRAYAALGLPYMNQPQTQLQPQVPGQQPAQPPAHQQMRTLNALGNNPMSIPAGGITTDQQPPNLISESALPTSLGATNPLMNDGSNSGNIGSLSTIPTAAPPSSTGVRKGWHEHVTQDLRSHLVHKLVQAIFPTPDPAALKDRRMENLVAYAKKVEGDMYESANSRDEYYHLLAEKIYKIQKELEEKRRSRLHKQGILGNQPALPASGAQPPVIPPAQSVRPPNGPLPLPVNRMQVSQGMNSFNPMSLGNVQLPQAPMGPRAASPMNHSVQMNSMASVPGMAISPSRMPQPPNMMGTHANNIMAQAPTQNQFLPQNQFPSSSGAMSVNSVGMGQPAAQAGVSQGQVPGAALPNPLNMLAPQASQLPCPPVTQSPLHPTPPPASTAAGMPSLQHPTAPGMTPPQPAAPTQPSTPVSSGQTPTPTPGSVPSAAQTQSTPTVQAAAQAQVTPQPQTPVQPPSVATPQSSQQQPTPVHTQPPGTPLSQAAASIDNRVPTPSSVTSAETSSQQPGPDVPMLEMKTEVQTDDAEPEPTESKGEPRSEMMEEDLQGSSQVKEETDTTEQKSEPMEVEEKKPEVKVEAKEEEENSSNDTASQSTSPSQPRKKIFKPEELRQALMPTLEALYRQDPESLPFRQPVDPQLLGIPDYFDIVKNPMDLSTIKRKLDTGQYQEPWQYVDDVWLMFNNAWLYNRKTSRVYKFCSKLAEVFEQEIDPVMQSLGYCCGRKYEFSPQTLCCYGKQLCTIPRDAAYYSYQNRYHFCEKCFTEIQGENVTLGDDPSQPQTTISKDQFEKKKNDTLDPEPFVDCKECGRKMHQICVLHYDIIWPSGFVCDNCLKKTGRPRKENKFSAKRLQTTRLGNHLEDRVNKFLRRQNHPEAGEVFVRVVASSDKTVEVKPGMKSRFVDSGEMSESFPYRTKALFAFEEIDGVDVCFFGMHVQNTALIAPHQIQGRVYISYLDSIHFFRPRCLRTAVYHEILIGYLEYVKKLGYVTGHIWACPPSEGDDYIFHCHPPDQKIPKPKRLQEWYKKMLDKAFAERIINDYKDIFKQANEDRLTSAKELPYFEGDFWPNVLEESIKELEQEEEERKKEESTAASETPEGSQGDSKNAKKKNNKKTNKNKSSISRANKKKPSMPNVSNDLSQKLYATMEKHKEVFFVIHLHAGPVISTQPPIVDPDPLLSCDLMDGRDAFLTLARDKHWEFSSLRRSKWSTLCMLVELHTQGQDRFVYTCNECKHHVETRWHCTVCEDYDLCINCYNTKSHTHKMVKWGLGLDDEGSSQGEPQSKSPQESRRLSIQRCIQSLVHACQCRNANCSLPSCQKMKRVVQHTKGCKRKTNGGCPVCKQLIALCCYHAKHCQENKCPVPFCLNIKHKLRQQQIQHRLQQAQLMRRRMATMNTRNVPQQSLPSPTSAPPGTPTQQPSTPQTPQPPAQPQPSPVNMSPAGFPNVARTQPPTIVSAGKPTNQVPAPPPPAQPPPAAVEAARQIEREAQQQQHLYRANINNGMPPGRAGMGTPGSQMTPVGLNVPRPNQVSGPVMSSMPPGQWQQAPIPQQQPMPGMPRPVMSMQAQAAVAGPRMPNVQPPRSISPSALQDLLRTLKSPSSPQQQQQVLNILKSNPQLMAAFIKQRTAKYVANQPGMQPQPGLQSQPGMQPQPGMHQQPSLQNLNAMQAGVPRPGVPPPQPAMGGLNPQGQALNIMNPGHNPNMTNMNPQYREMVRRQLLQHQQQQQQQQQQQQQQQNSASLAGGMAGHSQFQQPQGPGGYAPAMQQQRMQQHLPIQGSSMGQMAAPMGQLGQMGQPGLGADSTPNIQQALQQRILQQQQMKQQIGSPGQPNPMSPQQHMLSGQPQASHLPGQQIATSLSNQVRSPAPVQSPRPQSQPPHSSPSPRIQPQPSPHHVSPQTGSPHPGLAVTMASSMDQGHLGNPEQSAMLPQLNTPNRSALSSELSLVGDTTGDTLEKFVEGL

Chain of Basic helix-loop-helix ARNT-like protein 1 (Mus musculus), Q9WTL8-4 L606A;L607A (Q9WTL8 other isoform, or with tags, fused parts or gaps L606A;L607A): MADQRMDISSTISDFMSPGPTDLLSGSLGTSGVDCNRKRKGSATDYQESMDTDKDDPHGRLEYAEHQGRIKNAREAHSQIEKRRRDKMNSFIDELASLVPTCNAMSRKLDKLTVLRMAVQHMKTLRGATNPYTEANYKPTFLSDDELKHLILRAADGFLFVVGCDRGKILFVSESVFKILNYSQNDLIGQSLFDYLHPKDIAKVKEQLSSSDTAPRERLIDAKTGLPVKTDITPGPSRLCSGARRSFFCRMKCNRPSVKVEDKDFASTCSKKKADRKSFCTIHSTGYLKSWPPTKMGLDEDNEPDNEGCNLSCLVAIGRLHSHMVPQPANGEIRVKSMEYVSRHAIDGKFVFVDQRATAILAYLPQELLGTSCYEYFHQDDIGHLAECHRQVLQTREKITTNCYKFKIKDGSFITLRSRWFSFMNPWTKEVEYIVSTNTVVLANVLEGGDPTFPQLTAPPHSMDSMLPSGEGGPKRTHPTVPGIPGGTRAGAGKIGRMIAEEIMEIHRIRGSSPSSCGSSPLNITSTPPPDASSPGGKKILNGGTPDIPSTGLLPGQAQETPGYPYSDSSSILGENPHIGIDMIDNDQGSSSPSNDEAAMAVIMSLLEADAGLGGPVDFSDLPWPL
Chain of cry1_mouse Cry1 (P97784 whole entry): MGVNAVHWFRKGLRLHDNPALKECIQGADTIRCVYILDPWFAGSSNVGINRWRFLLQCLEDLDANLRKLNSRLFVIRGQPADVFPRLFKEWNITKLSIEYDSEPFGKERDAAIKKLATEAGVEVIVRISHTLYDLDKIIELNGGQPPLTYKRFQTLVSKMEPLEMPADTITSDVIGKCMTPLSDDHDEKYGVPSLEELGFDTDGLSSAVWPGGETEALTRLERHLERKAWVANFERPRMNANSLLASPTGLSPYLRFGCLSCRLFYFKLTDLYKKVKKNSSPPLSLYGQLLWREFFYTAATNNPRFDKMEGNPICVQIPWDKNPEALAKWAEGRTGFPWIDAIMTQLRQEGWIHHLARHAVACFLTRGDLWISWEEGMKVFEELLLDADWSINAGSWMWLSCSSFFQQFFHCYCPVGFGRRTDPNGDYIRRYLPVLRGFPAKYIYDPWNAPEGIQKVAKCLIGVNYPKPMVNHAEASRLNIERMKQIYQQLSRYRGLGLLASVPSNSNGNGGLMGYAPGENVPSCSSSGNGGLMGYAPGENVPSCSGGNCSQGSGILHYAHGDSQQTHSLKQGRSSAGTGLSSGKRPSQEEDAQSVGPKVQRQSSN
Chain of Basic helix-loop-helix ARNT-like protein 1 (Mus musculus), Q9WTL8-4 V602A;I603F (Q9WTL8 other isoform, or with tags, fused parts or gaps V602A;I603F): as the sequence (Q9WTL8 other isoform, or with tags, fused parts or gaps L606A;L607A) above

Row | Substance | effect of a mutation on the interaction (cry1_mouse Cry1) | effect of a mutation on the interaction (cbp_mouse Crebbp)
1 | Basic helix-loop-helix ARNT-like protein 1 (Mus musculus), Q9WTL8-4 V602A;I603F | disrupting interaction strength | 
2 | Basic helix-loop-helix ARNT-like protein 1 (Mus musculus), Q9WTL8-4 L606A;L607A | disrupting interaction strength | disrupting interaction strength

From IntAct's records for PubMed 25961797
